Measurements: patent US20250076311A1 (Chugai, published 2025)
Residue numbers refer to the chain shown, from its start. Names and notes keep the numbering of the source.

How the values were obtained:
[1] = target: T1, cynomolgus monkey FcγRIIIaS extracellular domain with C-terminal His-tag (cynomolgus monkey, UniProt A3RFZ7 21-206 (rhesus entry)); test: SPR (BIACORE); KD of SG1 / KD of variant
T1 construct: also called cyno FcgRIIIaS; cynoFcγRIIIaS; not shown: His-tag added to the C-terminus
Description: (§1) The kinetic analysis of interactions between these antibodies and FcγR was carried out using BIACORE® T200 or BIACORE® 4000 (GE Healthcare). HBS-EP+ (GE Healthcare) was used as the running buffer, and the measurement temperature was set to 25° C. […] After the measurement, the antibody captured on the chip was washed off by allowing reaction with 10 mM glycine-HCl, pH1.5 and 25 mM NaOH so that the chip was regenerated and used repeatedly. The sensorgrams obtained as measurement results were analyzed by the 1:1 Langmuir binding model using the BIACORE® Evaluation Software to calculate the binding rate constant ka (L/mol/s) and dissociation rate constant kd (1/s), and the dissociation constant KD (mol/L) was calculated from these values. […] Regarding such interactions, KD values were calculated using the following 1:1 binding model described in BIACORE® T100 Software Handbook BR1006-48 Edition AE.

[2] = target: T1, cynomolgus monkey FcγRIIIaS …; test: SPR (BIACORE), antibody captured, FcgR analyte
Description: as §1

[3] = target: T2, cynomolgus monkey FcγRIIa3 extracellular domain with C-terminal His-tag (cynomolgus monkey); test: SPR Biacore, antibody captured, FcgR analyte
T2 construct: also called cyno FcgRIIa3; cynoFcγRIIa3; not shown: His-tag added to C-terminus
T2 chain: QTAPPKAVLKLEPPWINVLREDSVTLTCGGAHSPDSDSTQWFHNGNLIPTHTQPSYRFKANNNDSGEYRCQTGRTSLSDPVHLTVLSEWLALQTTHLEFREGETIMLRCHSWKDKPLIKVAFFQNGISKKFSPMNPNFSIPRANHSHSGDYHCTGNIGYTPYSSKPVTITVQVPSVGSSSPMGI
Description: as §1

[4] = target: T3, cynomolgus monkey FcγRIIIaS extracellular domain with C-terminal His-tag (cynomolgus monkey, UniProt A3RFZ7 21-206 (rhesus entry)); test: SPR Biacore, antibody captured, FcgR analyte
T3 construct: also called cyno FcgRIIIaS; cynoFcγRIIIaS; not shown: His-tag added to C-terminus
Description: as §1

[5] = target: T4, human FcγRIIb extracellular domain with C-terminal His-tag (human, UniProt P31994 43-217); test: SPR Biacore, antibody captured, FcgR analyte
T4 construct: also called human FcgRIIb; not shown: His-tag added to C-terminus
T4 sequence: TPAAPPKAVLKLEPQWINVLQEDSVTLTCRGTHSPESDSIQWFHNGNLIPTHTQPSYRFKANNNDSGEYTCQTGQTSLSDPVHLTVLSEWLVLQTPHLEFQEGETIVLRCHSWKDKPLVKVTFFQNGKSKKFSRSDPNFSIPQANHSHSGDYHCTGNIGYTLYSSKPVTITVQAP
Description: as §1

[6] = target: T5, cynomolgus monkey FcγRIIa3 extracellular domain, His-tagged (cynomolgus monkey); test: SPR (Biacore), 25C, FcgR bound per antibody captured
T5 construct: also called cyno FcgRIIa3
T5 chain: T2 chain
Description: (§2) In the next step, cross-reactivity of these substitutions to cynoFcγRs was evaluated.
(§3) The value of the amount of FcγR binding was obtained by dividing the amount of FcγR bound by the amount of each antibody captured.

[7] = target: T6, cynomolgus monkey FcγRIIa2 extracellular domain, His-tagged (cynomolgus monkey); test: as above
T6 construct: also called cyno FcgRIIa2
T6 chain: T2 chain with I127K, K130N, P133H, R142Q
Description: as §2, §3

[8] = target: T7, cynomolgus monkey FcγRIIa1 extracellular domain, His-tagged (cynomolgus monkey); test: as above
T7 construct: also called cyno FcgRIIa1
T7 chain: T2 chain with T95P, A121T, S128A, P133H, N135D
Description: as §2, §3

[9] = target: T8, cynomolgus monkey FcγRIIIaS extracellular domain, His-tagged (cynomolgus monkey, UniProt Q8SPW2 21-206 at identity 1.00)); test: as above
T8 construct: also called cyno FcgRIIIaS
T8 chain: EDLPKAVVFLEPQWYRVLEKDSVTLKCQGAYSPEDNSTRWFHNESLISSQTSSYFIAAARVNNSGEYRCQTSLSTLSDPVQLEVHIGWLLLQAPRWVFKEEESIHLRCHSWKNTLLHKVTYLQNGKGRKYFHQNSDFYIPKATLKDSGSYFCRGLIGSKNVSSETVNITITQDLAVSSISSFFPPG
Description: as §2, §3

[10] = target: T9, cynomolgus monkey FcγRIIb extracellular domain, His-tagged (cynomolgus monkey); test: as above
T9 construct: also called cyno FcgRIIb
T9 chain: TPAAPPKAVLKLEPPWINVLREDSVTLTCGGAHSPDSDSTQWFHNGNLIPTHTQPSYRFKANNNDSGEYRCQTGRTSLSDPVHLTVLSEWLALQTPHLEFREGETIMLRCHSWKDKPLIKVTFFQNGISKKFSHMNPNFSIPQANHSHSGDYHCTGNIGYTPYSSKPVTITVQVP
Description: as §2, §3

[11] = target: T10, human FcγRIIIaV extracellular domain, His-tagged (human, UniProt P08637 17-208); test: as above
T10 construct: also called human FcgRIIIaV
T10 sequence (P08637 17-208 F176V): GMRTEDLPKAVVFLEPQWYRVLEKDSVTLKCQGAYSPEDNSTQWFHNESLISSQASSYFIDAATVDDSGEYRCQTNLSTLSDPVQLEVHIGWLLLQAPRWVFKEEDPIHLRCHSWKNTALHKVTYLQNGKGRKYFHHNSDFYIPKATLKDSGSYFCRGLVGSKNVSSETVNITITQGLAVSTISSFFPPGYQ

[12] = target: T11, human FcγRIIaH extracellular domain, His-tagged (human, UniProt P12318 34-217); test: as above
T11 construct: also called human FcgRIIaH; FcγRIIa type H
T11 sequence: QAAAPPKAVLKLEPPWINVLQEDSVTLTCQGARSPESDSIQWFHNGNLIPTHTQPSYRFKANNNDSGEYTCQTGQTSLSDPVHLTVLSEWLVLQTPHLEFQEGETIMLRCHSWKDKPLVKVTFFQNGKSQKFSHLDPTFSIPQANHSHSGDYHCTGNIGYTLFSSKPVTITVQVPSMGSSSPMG

[13] = target: T12, cynomolgus monkey FcγRIIIaS extracellular domain with C-terminal His-tag (cynomolgus monkey, UniProt Q8SPW2 21-206 at identity 1.00)); test: SPR, KD(parent SG1)/KD(variant)
T12 construct: also called cyno FcgRIIIaS; cynoFcγRIIIaS
T12 chain: T8 chain

B1: M103205H795-MY001/M103202L889-SK1 (antibody, human IgG1, kappa, name in EU numbering)
heavy: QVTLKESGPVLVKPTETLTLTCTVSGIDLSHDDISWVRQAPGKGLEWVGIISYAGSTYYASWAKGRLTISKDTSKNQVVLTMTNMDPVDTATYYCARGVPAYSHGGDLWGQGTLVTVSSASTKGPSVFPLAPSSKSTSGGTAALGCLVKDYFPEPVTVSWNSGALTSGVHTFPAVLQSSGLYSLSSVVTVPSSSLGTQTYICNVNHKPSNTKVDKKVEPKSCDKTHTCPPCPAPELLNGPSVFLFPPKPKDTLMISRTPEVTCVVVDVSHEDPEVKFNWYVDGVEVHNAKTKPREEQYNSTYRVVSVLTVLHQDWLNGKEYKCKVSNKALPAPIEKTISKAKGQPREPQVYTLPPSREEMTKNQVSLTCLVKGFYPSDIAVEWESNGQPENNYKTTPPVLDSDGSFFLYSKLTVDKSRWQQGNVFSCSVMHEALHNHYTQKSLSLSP
light: DIVMTQSPATLSLSPGERATLSCTSSQSVYHANWLSWFQQKPGQPPKLLIYWASTLAYGVPSRFSGSGSGTDFTLTISSLQPEDAATYYCAGGYGGGRYAFGQGTKVEIKRTVAAPSVFIFPPSDEQLKSGTASVVCLLNNFYPREAKVQWKVDNALQSGNSQESVTEQDSKDSTYSLSSTLTLSKADYEKHKVYACEVTHQGLSSPVTKSFNRGEC
notes: Fc variant of MS1032LO06-SG1; positions in EU numbering
With B1 the “KD fold (SG1 = 1)” value [1] was 0.05 fold and the Kd [2] was 32 µM.

B2: M103205H795-MY181/M103202L889-SK1 (antibody, human IgG1, kappa, name in EU numbering)
heavy: QVTLKESGPVLVKPTETLTLTCTVSGIDLSHDDISWVRQAPGKGLEWVGIISYAGSTYYASWAKGRLTISKDTSKNQVVLTMTNMDPVDTATYYCARGVPAYSHGGDLWGQGTLVTVSSASTKGPSVFPLAPSSKSTSGGTAALGCLVKDYFPEPVTVSWNSGALTSGVHTFPAVLQSSGLYSLSSVVTVPSSSLGTQTYICNVNHKPSNTKVDKKVEPKSCDKTHTCPPCPAPELLNGPSVFLFPPKPKDTLMISRTPEVTCVVVDVSEEDPEVKFNWYVDGVEVHNAKTKPREEQYNSTYRVVSVLTVLHQDWLNGKEYKCKVSNKALPAPIEKTISKAKGQPREPQVYTLPPSREEMTKNQVSLTCLVKGFYPSDIAVEWESNGQPENNYKTTPTVLDSDGSFFLYSKLTVDKSRWQQGNVFSCSVMHEALHNHYTQKSLSLSP
light: B1 light
notes: EU numbering
With B2 the “KD fold (SG1 = 1)” value [3] was 1.1 fold, the “KD fold (SG1 = 1)” value [4] was 0.09 fold and the Kd [4] was 4.1 µM. It also gave a Kd [5] of 1400 nM.

B3: M103205H795-SG177 / M103202L889-SK1 (antibody, human IgG1, kappa, name in EU numbering)
heavy: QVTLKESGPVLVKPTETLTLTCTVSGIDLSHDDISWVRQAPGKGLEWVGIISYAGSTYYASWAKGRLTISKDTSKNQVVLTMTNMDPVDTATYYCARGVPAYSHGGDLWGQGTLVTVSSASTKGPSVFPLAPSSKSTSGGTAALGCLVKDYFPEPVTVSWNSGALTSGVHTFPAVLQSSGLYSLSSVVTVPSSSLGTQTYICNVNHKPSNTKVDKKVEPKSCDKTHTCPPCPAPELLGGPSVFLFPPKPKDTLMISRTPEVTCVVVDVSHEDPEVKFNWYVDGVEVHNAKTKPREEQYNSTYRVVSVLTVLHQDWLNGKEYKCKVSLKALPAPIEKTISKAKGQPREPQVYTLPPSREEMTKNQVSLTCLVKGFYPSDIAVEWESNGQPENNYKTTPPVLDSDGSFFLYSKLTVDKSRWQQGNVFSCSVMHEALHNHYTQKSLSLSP
light: B1 light
notes: also called N325L
With B3 the “Binding to cynoFcgRs (SG1 = 100)” value [6] was 25, the “Binding to cynoFcgRs (SG1 = 100)” value [7] was 15 and the “Binding to cynoFcgRs (SG1 = 100)” value [8] was 15. For the same binder, the “Binding to cynoFcgRs (SG1 = 100)” value [9] was 21 and the “Binding to cynoFcgRs (SG1 = 100)” value [10] was 18.

B4: M103205H795-SG178 / M103202L889-SK1 (antibody, human IgG1, kappa, name in EU numbering)
heavy: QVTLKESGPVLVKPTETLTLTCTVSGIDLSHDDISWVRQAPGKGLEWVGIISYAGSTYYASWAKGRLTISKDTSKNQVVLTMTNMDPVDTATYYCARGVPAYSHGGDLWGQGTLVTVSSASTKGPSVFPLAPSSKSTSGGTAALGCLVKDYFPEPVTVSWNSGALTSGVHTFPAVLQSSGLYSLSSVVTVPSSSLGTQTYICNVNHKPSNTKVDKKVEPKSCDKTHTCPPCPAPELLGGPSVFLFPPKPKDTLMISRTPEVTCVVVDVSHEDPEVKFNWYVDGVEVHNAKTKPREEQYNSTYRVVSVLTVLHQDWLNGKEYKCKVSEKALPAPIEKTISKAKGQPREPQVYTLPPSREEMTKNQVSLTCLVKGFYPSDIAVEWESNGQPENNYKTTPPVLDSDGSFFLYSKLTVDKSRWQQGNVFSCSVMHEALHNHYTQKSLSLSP
light: B1 light
notes: also called N325E
With B4 the “Binding to cynoFcgRs (SG1 = 100)” value [6] was 29, the “Binding to cynoFcgRs (SG1 = 100)” value [7] was 21 and the “Binding to cynoFcgRs (SG1 = 100)” value [8] was 22. For the same binder, the “Binding to cynoFcgRs (SG1 = 100)” value [9] was 36 and the “Binding to cynoFcgRs (SG1 = 100)” value [10] was 26.

B5: M103205H795-SG179 / M103202L889-SK1 (antibody, human IgG1, kappa, name in EU numbering)
heavy: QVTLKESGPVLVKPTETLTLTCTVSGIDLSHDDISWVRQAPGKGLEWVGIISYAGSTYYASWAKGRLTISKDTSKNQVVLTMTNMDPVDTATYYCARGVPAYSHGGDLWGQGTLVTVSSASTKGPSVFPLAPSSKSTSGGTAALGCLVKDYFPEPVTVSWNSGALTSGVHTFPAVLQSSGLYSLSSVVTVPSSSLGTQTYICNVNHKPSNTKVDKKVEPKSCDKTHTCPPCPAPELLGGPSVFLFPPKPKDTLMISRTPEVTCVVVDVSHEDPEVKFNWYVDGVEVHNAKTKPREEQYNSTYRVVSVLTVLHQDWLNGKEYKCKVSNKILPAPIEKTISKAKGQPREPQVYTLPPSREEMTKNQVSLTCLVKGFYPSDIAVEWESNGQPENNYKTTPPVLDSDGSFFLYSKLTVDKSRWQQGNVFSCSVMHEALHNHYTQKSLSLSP
light: B1 light
notes: also called A327I
For B5, the “Binding to cynoFcgRs (SG1 = 100)” value [6] was 28, the “Binding to cynoFcgRs (SG1 = 100)” value [7] was 17 and the “Binding to cynoFcgRs (SG1 = 100)” value [8] was 19. The “Binding to cynoFcgRs (SG1 = 100)” value [9] was 48 and the “Binding to cynoFcgRs (SG1 = 100)” value [10] was 19.

B6: GpH7-B3 G237Y / GpL16-k0 (antibody, human IgG1, kappa)
heavy: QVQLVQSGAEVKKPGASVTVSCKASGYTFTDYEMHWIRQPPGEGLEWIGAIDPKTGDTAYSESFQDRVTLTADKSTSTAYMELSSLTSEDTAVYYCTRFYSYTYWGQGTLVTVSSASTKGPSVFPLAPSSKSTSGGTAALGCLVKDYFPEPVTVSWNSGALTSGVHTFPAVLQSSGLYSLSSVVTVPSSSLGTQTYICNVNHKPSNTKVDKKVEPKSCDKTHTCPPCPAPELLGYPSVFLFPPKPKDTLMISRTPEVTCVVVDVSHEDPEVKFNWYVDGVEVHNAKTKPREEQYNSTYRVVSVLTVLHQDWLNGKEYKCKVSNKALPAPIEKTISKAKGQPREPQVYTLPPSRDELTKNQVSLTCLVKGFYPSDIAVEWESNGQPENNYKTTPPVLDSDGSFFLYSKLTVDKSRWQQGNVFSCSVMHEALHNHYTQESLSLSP
light: DIVMTQSPLSLPVTPGEPASISCQASESLVHSNRNTYLHWYLQKPGQSPQLLIYKVSNRFSGVPDRFSGSGSGTDFTLKISRVEAEDVGVYYCSQNTHVPPTFGQGTKVEIERTVAAPSVFIFPPSDEQLKSGTASVVCLLNNFYPREAKVQWKVDNALQSGNSQESVTEQDSKDSTYSLSSTLTLSKADYEKHKVYACEVTHQGLSSPVTKSFNRGEC
notes: also called B3 variant G237Y
In the case of B6, the “Binding to human FcgRs (parent B3 = 100)” value [11] is reported as 0 and the “Binding to human FcgRs (parent B3 = 100)” value [12] is reported as 77.

B7: GpH7-B3 N325I / GpL16-k0 (antibody, human IgG1, kappa)
heavy: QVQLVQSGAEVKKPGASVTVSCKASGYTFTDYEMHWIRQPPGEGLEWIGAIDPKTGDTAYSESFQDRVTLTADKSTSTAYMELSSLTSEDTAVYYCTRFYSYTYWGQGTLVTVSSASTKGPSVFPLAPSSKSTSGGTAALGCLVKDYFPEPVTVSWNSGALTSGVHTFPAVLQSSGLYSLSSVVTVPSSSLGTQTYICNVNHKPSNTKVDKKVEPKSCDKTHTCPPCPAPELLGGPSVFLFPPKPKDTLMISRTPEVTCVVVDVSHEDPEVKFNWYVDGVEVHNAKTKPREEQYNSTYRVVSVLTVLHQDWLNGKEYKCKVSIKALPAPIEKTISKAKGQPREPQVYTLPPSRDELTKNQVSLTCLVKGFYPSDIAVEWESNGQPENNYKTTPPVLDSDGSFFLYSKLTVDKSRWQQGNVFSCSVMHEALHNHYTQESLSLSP
light: B6 light
notes: also called B3 variant N325I
B7 was tested, and the “Binding to human FcgRs (parent B3 = 100)” value [11] was 1 and the “Binding to human FcgRs (parent B3 = 100)” value [12] was 76.

B8: GpH7-B3 P238M / GpL16-k0 (antibody, human IgG1, kappa)
heavy: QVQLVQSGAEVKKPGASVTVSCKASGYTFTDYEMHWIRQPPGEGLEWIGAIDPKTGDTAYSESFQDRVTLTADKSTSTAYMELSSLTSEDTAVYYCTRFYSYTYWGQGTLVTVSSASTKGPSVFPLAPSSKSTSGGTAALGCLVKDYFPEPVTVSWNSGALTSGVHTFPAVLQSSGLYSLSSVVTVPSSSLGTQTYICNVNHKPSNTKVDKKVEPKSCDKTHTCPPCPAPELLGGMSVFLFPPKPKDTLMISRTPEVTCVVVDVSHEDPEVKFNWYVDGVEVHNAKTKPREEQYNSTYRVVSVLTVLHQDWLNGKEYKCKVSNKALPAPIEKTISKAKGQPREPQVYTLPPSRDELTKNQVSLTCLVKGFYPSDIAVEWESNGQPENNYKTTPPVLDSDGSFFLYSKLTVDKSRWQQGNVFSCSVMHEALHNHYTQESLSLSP
light: B6 light
notes: also called B3 variant P238M
With B8 the “Binding to human FcgRs (parent B3 = 100)” value [11] was 2 and the “Binding to human FcgRs (parent B3 = 100)” value [12] was 86.

B9: MS1032LO19-SG1 (antibody, human IgG1, kappa)
heavy: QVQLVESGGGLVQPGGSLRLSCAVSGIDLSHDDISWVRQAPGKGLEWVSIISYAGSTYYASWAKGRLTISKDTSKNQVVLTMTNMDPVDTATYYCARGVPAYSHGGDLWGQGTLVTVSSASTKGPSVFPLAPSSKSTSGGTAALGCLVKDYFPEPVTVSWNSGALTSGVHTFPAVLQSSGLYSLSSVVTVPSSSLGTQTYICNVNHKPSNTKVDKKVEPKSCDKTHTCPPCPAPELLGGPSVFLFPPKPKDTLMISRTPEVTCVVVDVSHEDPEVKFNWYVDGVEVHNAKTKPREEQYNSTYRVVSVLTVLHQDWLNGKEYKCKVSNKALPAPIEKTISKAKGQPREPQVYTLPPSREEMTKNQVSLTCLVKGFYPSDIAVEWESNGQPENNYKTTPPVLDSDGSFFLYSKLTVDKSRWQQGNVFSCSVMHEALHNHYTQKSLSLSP
light: B1 light with S25T, A32E
notes: tied to rows r13/r31 by row order only; also called MS103240H795-SG1; copies: 2 + 2
In the case of B9, the “KD fold (SG1 = 1)” value [13] is reported as 1 fold.

B10: MS1032LO19-SG1081 (antibody, name in EU numbering)
heavy: QVQLVESGGGLVQPGGSLRLSCAVSGIDLSHDDISWVRQAPGKGLEWVSIISYAGSTYYASWAKGRLTISKDTSKNQVVLTMTNMDPVDTATYYCARGVPAYSHGGDLWGQGTLVTVSSASTKGPSVFPLAPSSKSTSGGTAALGCLVKDYFPEPVTVSWNSGALTSGVHTFPAVLQSSGLYSLSSVVTVPSSSLGTQTYICNVNHKPSNTKVDKKVEPKSCDKTHTCPPCPAPELWNGPSVFLFPPKPKDTLMISRTPEVTCVVVDVSDEDPEVKFNWYVDGVEVHNAKTKPREELYNSTYRVVSVLTVLHRDWLNGKEYKCKVSNTALPKPIEKTISKAKGQRREPQVYTLPPSREEMTKNQVSLTCLVKGFYPSDIAVEWESNGQPENNYKTTPPVLDSDGSFFLYSKLTVDKSRWQQGNVFSCSVMHEALHAHYTRKELSLSP
light: B1 light with S25T, A32E
notes: tied to rows r19/r37 by row order only; also called MS103240H795-SG1081
B10 was tested, and the “KD fold (SG1 = 1)” value [13] was 0.09 fold.

B11: MS1032LO19-SG1077 (antibody, name in EU numbering)
heavy: B10 heavy with M430L, Y438T
light: B1 light with S25T, A32E
notes: tied to rows r16/r34 by row order only; also called MS103240H795-SG1077
In the case of B11, the “KD fold (SG1 = 1)” value [13] is reported as 0.09 fold.
